Data published in PMC4496704.

Tests used:
[1] = biological target: Hsp-N (ATPase domain of mouse Hsp70; lacks the peptide-binding domain) (mouse); assay: cross-linking; without sulfatide (with or without lactosylceramide); 0.1 μM protein in PBS, 0.1% glutaraldehyde 10 min 30 °C, SDS-PAGE and Western blot
[2] = biological target: Recombinant mouse Hsp70 (70-kDa heat shock protein), wild type (mouse) (UniProt Q61696); assay: as above

| stoichiometry N [1] | stoichiometry N [2] | Substance |
| --- | --- | --- |
| 2 | – | Hsp-N (ATPase domain of mouse Hsp70; lacks the peptide-binding domain) (domain or fragment) |
| – | 2 | Recombinant mouse Hsp70 (70-kDa heat shock protein), wild type (from UniProt Q61696 1-641) (natural protein) |
